# Measured values published in the Immune Epitope Database (IEDB).
# Tests used:
# HLA-B*51:01 = assay: IEDB peptide-MHC binding, purified MHC/competitive/radioactivity; filed as Kd, often an IC50 or EC50 that approximates it; ≥ and ≤ were set here for values at or beyond the usual limits of such assays
# HLA-A*02:01 [1] = assay: IEDB peptide-MHC binding, purified MHC/competitive/fluorescence; ≥ and ≤ were set here for values at or beyond the usual limits of such assays
# HLA-A*02:02 = assay: IEDB peptide-MHC binding, purified MHC/competitive/radioactivity; filed as Kd, often an IC50 or EC50 that approximates it; ≥ and ≤ were set here for values at or beyond the usual limits of such assays
# HLA-A*02:03 = assay: as above
# HLA-A*02:06 = assay: as above
# HLA-B*07:02 = assay: as above; settings: source organism: Dengue virus 3 Martinique/1243/1999
# HLA-A*02:01 [2] = assay: IEDB peptide-MHC binding, purified MHC/direct/fluorescence; filed as Kd, often an IC50 or EC50 that approximates it; ≥ and ≤ were set here for values at or beyond the usual limits of such assays
# HLA-A*11:01 = assay: as above; settings: source organism: SARS-CoV1
# HLA-B*15:01 = assay: as above
# HLA-B*27:05 = assay: as above; settings: source organism: SARS-CoV1
# HLA-B*40:01 = assay: as above; settings: source organism: SARS-CoV1
# HLA-B*58:01 = assay: as above
# HLA-B*53:01 = assay: IEDB peptide-MHC binding, purified MHC/competitive/radioactivity; filed as Kd, often an IC50 or EC50 that approximates it; ≥ and ≤ were set here for values at or beyond the usual limits of such assays; settings: source organism: Dengue virus 2 Jamaica/1409/1983
# HLA-A*03:01 = assay: IEDB peptide-MHC binding, purified MHC/direct/fluorescence; filed as Kd, often an IC50 or EC50 that approximates it; ≥ and ≤ were set here for values at or beyond the usual limits of such assays; settings: source organism: Cryptosporidium parvum
# HLA-A*01:01 [3] = assay: IEDB peptide-MHC binding, purified MHC/competitive/radioactivity; filed as Kd, often an IC50 or EC50 that approximates it; ≥ and ≤ were set here for values at or beyond the usual limits of such assays
# HLA-A*31:01 = assay: as above; settings: source organism: SARS coronavirus Tor2
# HLA-A*33:01 = assay: as above; settings: source organism: SARS coronavirus Tor2
# HLA-A*68:01 = assay: as above; settings: source organism: SARS coronavirus Tor2
# HLA-A*69:01 = assay: IEDB peptide-MHC binding, purified MHC/direct/fluorescence; filed as Kd, often an IC50 or EC50 that approximates it; ≥ and ≤ were set here for values at or beyond the usual limits of such assays; settings: source organism: Yersinia pestis
# HLA-A*01:01 [4] = assay: as above; settings: source organism: West Nile virus
# [5] = source organism: Vaccinia virus WR
# [6] = source organism: Dengue virus 3 Martinique/1243/1999
# [7] = source organism: Lassa virus Josiah
sequence,measurement,setting,value
VAEIQPQWI,Kd,HLA-B*51:01; source organism: Dengue virus 4 Philippines/H241/1956,≥ 20900 nM
VAFLILPQA,IC50,HLA-A*02:01 [1]; source organism: Zaire ebolavirus,520 nM
VIKLVKSLV,Kd,HLA-A*02:02; [5],1030 nM
same,Kd,HLA-A*02:03; [5],126 nM
same,Kd,HLA-A*02:06; [5],4.12 µM
VIRHVDGKI,Kd,HLA-A*02:02; [5],8550 nM
same,Kd,HLA-A*02:03; [5],978 nM
same,Kd,HLA-A*02:06; [5],9.27 µM
VPMAGPLVA,Kd,HLA-B*07:02,56 nM
VQQESSFVM,Kd,HLA-A*02:01 [2]; source organism: SARS-CoV1,1070 nM
same,Kd,HLA-A*11:01,≥ 20.7 µM
same,Kd,HLA-B*15:01; source organism: SARS-CoV1,67.4 nM
same,Kd,HLA-B*27:05,4.77 µM
same,Kd,HLA-B*40:01,7.46 µM
VSFSMVGLF,Kd,HLA-B*58:01; source organism: Mammarenavirus juninense,119 nM
VSIPITAAAW,Kd,HLA-B*53:01,402 nM
VSWKPWSSK,Kd,HLA-A*03:01,50.7 nM
VTEEIAVQNW,Kd,HLA-A*01:01 [3]; source organism: Dengue virus 2 Jamaica/1409/1983,≥ 38700 nM
VTKRDESSI,Kd,HLA-A*02:02; [5],8050 nM
same,Kd,HLA-A*02:03; [5],2140 nM
same,Kd,HLA-A*02:06; [5],≥ 38.3 µM
VVYRGTTTY,Kd,HLA-B*15:01; source organism: SARS-CoV1,110 nM
same,Kd,HLA-B*58:01; source organism: SARS-CoV1,281 nM
same,Kd,HLA-A*31:01,9.74 µM
same,Kd,HLA-A*33:01,≥ 77.7 µM
same,Kd,HLA-A*68:01,8.79 µM
WPLNEGVMAV,Kd,HLA-B*51:01; [6],1670 nM
WQNLAWAGV,Kd,HLA-A*02:01 [2]; source organism: Yersinia pestis,53.6 nM
same,Kd,HLA-A*69:01,7 µM
WTLDANINA,IC50,HLA-A*02:01 [1]; source organism: Sudan ebolavirus,3850 nM
YAAEMVEYL,Kd,HLA-A*02:02; [5],0.524 nM
same,Kd,HLA-A*02:03; [5],2.07 nM
same,Kd,HLA-A*02:06; [5],0.0118 µM
YAGTIKESLL,Kd,HLA-A*02:02; [5],1020 nM
same,Kd,HLA-A*02:03; [5],4040 nM
same,Kd,HLA-A*02:06; [5],1.77 µM
YCSNIKLQVV,Kd,HLA-A*02:02; [7],1230 nM
same,Kd,HLA-A*02:03; [7],801 nM
same,Kd,HLA-A*02:06; [7],7.12 µM
YQTDSGCWY,Kd,HLA-A*01:01 [4],6.06 µM
same,Kd,HLA-B*15:01; source organism: West Nile virus,1340 nM
YTDRKWCFD,Kd,HLA-A*01:01 [3]; [6],597 nM
